Assay results as given in patent US20180155451A1 (published 2018).

B1: GpH7-B3 variant A327_09D/GpL16-k0 (antibody, human IgG1, kappa)
heavy: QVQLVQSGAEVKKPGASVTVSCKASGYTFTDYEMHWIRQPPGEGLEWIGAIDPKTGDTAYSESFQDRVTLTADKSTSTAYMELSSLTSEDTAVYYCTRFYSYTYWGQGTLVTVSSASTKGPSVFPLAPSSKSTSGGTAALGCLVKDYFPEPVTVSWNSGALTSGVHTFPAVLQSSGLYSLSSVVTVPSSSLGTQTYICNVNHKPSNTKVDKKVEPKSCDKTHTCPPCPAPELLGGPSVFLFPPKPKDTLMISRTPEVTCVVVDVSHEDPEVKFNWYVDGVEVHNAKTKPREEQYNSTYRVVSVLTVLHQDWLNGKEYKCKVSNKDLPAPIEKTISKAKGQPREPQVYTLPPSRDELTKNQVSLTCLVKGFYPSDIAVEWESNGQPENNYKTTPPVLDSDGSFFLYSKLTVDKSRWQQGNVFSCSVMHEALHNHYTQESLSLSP
light: DIVMTQSPLSLPVTPGEPASISCQASESLVHSNRNTYLHWYLQKPGQSPQLLIYKVSNRFSGVPDRFSGSGSGTDFTLKISRVEAEDVGVYYCSQNTHVPPTFGQGTKVEIERTVAAPSVFIFPPSDEQLKSGTASVVCLLNNFYPREAKVQWKVDNALQSGNSQESVTEQDSKDSTYSLSSTLTLSKADYEKHKVYACEVTHQGLSSPVTKSFNRGEC
notes: homodimerized; also called Ho Ab A327_09D
B2: GpH7-B3 variant E269_20W/GpL16-k0 (antibody, human IgG1, kappa)
heavy: not shown
light: B1 light
notes: homodimerized; also called Ho Ab E269_20W
B3: GpH7-B3 variant E333_15Y/GpL16-k0 (antibody, human IgG1, kappa)
heavy: not shown
light: B1 light
notes: homodimerized; also called Ho Ab E333_15Y
B4: GpH7-B3 variant A330_14T/GpL16-k0 (antibody, human IgG1, kappa)
heavy: not shown
light: B1 light
notes: homodimerized; also called Ho Ab A330_14T
B5: GpH7-B3 variant E333_03V/GpL16-k0 (antibody, human IgG1, kappa)
heavy: not shown
light: B1 light
notes: homodimerized; also called Ho Ab E333_03V
B6: GpH7-B3 variant E269_08L/GpL16-k0 (antibody, human IgG1, kappa)
heavy: not shown
light: B1 light
notes: homodimerized; also called Ho Ab E269_08L
B7: GpH7-B3 variant E269_19Q/GpL16-k0 (antibody, human IgG1, kappa)
heavy: not shown
light: B1 light
notes: homodimerized; also called Ho Ab E269_19Q
B8: GpH7-B3 variant E333_06M/GpL16-k0 (antibody, human IgG1, kappa)
heavy: not shown
light: B1 light
notes: homodimerized; also called Ho Ab E333_06M
B9: GpH7-B3 variant G236_20W/GpL16-k0 (antibody, human IgG1, kappa)
heavy: not shown
light: B1 light
notes: homodimerized; also called Ho Ab G236_20W; GpH7-B3-03-20W/GpL16-k0
B10: GpH7-B3 variant E333_07I/GpL16-k0 (antibody, human IgG1, kappa)
heavy: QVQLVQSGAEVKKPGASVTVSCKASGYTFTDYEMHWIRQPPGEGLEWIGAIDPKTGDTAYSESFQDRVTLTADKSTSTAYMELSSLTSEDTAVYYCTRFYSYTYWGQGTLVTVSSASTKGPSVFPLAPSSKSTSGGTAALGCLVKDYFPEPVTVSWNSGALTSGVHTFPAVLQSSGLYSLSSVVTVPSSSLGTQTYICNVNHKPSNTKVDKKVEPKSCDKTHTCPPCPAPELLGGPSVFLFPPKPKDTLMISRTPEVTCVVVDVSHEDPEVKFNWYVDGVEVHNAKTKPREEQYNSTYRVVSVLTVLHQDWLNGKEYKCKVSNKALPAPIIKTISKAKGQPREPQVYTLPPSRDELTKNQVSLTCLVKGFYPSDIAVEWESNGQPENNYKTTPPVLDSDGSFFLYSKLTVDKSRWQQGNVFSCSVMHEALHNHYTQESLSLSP
light: B1 light
notes: homodimerized; also called Ho Ab E333_07I
B11: GpH7-B3 variant A330_08L/GpL16-k0 (antibody, human IgG1, kappa)
heavy: not shown
light: B1 light
notes: homodimerized; also called Ho Ab A330_08L; GpH7-B3-20-08L/GpL16-k0
B12: GpH7-B3 variant A330_05P/GpL16-k0 (antibody, human IgG1, kappa)
heavy: not shown
light: B1 light
notes: homodimerized; also called Ho Ab A330_05P
B13: GpH7-B3 variant E269_01G/GpL16-k0 (antibody, human IgG1, kappa)
heavy: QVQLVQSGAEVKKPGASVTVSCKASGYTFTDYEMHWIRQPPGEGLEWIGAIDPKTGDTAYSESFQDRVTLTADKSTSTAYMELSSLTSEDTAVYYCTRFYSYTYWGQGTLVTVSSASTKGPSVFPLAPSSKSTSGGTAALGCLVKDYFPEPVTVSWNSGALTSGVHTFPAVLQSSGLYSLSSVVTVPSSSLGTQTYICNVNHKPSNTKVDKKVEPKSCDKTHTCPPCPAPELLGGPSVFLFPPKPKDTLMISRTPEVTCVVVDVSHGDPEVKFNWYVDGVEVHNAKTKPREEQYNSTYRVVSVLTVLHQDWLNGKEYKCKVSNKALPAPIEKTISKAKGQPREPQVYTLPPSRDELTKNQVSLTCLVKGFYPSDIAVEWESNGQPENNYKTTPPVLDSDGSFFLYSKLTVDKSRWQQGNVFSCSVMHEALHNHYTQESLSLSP
light: B1 light
notes: homodimerized; also called Ho Ab E269_01G
B14: GpH7-B3 variant A330_16H/GpL16-k0 (antibody, human IgG1, kappa)
heavy: not shown
light: B1 light
notes: homodimerized; also called Ho Ab A330_16H
B15: GpH7-B3 variant E333_02A/GpL16-k0 (antibody, human IgG1, kappa)
heavy: not shown
light: B1 light
notes: homodimerized; also called Ho Ab E333_02A
B16: GpH7-B3 variant E269_14T/GpL16-k0 (antibody, human IgG1, kappa)
heavy: not shown
light: B1 light
notes: homodimerized; also called Ho Ab E269_14T
B17: GpH7-B3 variant E333_09D/GpL16-k0 (antibody, human IgG1, kappa)
heavy: not shown
light: B1 light
notes: homodimerized; also called Ho Ab E333_09D
B18: GpH7-B3 variant E269_05P/GpL16-k0 (antibody, human IgG1, kappa)
heavy: not shown
light: B1 light
notes: homodimerized; also called Ho Ab E269_05P
B19: GpH7-B3 variant E269_13S/GpL16-k0 (antibody, human IgG1, kappa)
heavy: not shown
light: B1 light
notes: homodimerized; also called Ho Ab E269_13S
B20: GpH7-B3 variant E333_16H/GpL16-k0 (antibody, human IgG1, kappa)
heavy: not shown
light: B1 light
notes: homodimerized; also called Ho Ab E333_16H
B21: GpH7-B3 variant H268_02A/GpL16-k0 (antibody, human IgG1, kappa)
heavy: not shown
light: B1 light
notes: homodimerized; also called Ho Ab H268_02A
B22: GpH7-B3 variant E333_04F/GpL16-k0 (antibody, human IgG1, kappa)
heavy: not shown
light: B1 light
notes: homodimerized; also called Ho Ab E333_04F
B23: GpH7-B3 variant E269_16H/GpL16-k0 (antibody, human IgG1, kappa)
heavy: not shown
light: B1 light
notes: homodimerized; also called Ho Ab E269_16H
B24: GpH7-B3 variant E269_07I/GpL16-k0 (antibody, human IgG1, kappa)
heavy: not shown
light: B1 light
notes: homodimerized; also called Ho Ab E269_07I
B25: GpH7-B3 variant E333_11K/GpL16-k0 (antibody, human IgG1, kappa)
heavy: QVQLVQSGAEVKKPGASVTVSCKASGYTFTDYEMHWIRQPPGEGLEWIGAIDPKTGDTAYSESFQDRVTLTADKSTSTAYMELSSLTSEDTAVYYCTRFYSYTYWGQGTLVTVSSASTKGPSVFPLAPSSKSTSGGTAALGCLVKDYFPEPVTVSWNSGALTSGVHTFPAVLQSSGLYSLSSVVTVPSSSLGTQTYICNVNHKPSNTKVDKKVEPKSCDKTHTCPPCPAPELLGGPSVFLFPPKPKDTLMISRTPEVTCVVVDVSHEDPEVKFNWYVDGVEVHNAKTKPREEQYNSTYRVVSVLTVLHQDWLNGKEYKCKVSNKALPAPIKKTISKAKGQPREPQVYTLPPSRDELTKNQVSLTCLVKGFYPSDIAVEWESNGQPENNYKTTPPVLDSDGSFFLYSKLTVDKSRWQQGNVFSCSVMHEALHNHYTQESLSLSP
light: B1 light
notes: homodimerized; also called Ho Ab E333_11K
B26: GpH7-B3 variant A327_10E/GpL16-k0 (antibody, human IgG1, kappa)
heavy: not shown
light: B1 light
notes: homodimerized; also called Ho Ab A327_10E
B27: GpH7-B3 variant E333_08L/GpL16-k0 (antibody, human IgG1, kappa)
heavy: not shown
light: B1 light
notes: homodimerized; also called Ho Ab E333_08L
B28: GpH7-B3 variant E269_18N/GpL16-k0 (antibody, human IgG1, kappa)
heavy: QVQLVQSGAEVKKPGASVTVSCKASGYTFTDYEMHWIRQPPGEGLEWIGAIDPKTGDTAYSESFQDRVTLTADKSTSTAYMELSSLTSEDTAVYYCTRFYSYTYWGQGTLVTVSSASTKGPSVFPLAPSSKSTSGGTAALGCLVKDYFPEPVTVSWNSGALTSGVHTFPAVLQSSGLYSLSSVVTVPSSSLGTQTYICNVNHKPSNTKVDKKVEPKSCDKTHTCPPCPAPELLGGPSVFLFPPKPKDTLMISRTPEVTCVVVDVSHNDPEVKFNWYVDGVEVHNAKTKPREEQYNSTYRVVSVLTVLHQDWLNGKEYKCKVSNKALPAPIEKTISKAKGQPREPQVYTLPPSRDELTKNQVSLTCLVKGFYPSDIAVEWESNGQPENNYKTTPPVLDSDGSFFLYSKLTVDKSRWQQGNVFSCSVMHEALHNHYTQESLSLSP
light: B1 light
notes: homodimerized; also called Ho Ab E269_18N
B29: GpH7-B3 variant A330_11K/GpL16-k0 (antibody, human IgG1, kappa)
heavy: not shown
light: B1 light
notes: homodimerized; also called Ho Ab A330_11K
B30: GpH7-B3 variant E269_06M/GpL16-k0 (antibody, human IgG1, kappa)
heavy: not shown
light: B1 light
notes: homodimerized; also called Ho Ab E269_06M
B31: GpH7-B3 variant E269_03V/GpL16-k0 (antibody, human IgG1, kappa)
heavy: not shown
light: B1 light
notes: homodimerized; also called Ho Ab E269_03V
B32: GpH7-B3 variant E333_05P/GpL16-k0 (antibody, human IgG1, kappa)
heavy: not shown
light: B1 light
notes: homodimerized; also called Ho Ab E333_05P
B33: GpH7-B3 variant H268_05P/GpL16-k0 (antibody, human IgG1, kappa)
heavy: not shown
light: B1 light
notes: homodimerized; also called Ho Ab H268_05P
B34: GpH7-B3 variant E269_15Y/GpL16-k0 (antibody, human IgG1, kappa)
heavy: not shown
light: B1 light
notes: homodimerized; also called Ho Ab E269_15Y
B35: GpH7-B3 variant H268_07I/GpL16-k0 (antibody, human IgG1, kappa)
heavy: not shown
light: B1 light
notes: homodimerized; also called Ho Ab H268_07I
B36: GpH7-B3 variant E269_09D/GpL16-k0 (antibody, human IgG1, kappa)
heavy: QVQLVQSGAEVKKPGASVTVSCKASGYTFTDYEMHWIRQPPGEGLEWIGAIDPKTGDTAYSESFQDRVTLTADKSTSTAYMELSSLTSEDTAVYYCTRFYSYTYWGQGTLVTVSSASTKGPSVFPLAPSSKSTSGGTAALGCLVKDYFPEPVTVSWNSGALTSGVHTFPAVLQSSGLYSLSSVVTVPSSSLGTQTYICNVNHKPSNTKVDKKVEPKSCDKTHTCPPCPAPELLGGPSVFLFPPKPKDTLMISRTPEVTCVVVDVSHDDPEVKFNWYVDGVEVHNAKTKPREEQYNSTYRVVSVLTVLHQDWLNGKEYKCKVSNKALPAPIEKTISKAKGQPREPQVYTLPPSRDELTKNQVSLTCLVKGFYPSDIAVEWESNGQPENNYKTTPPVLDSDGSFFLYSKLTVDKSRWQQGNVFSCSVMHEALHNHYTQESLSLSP
light: B1 light
notes: homodimerized; also called Ho Ab E269_09D
B37: GpH7-B3 variant A327_13S/GpL16-k0 (antibody, human IgG1, kappa)
heavy: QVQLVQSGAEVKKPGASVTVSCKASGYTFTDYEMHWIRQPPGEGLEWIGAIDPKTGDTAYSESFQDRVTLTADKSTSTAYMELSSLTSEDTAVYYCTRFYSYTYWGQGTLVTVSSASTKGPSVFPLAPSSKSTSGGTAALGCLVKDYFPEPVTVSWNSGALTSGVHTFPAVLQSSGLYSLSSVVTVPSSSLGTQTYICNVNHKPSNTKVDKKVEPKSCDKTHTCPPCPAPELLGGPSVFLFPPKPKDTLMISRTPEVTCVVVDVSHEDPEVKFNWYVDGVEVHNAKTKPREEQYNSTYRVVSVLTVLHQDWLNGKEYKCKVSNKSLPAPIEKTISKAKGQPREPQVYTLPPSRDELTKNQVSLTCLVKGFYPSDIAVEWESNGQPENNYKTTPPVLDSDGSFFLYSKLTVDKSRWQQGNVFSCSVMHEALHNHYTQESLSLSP
light: B1 light
notes: homodimerized; also called Ho Ab A327_13S
B38: GpH7-B3 variant A330_09D/GpL16-k0 (antibody, human IgG1, kappa)
heavy: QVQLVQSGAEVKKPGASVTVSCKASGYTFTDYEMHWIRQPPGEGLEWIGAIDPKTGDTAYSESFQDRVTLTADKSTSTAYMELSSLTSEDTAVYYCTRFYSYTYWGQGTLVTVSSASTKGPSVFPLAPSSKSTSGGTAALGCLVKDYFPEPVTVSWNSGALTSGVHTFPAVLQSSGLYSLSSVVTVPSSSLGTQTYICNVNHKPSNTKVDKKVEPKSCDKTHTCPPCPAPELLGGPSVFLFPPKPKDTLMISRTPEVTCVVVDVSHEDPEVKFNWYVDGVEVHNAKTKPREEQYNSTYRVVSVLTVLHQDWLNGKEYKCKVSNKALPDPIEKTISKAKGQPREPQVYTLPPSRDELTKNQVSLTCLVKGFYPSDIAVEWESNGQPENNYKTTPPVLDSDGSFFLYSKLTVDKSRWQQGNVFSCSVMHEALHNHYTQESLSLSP
light: B1 light
notes: homodimerized; also called Ho Ab A330_09D
B39: GpH7-B3 variant E333_01G/GpL16-k0 (antibody, human IgG1, kappa)
heavy: not shown
light: B1 light
notes: homodimerized; also called Ho Ab E333_01G
B40: GpH7-B3 variant E333_12R/GpL16-k0 (antibody, human IgG1, kappa)
heavy: not shown
light: B1 light
notes: homodimerized; also called Ho Ab E333_12R
B41: GpH7-B3 variant E269_02A/GpL16-k0 (antibody, human IgG1, kappa)
heavy: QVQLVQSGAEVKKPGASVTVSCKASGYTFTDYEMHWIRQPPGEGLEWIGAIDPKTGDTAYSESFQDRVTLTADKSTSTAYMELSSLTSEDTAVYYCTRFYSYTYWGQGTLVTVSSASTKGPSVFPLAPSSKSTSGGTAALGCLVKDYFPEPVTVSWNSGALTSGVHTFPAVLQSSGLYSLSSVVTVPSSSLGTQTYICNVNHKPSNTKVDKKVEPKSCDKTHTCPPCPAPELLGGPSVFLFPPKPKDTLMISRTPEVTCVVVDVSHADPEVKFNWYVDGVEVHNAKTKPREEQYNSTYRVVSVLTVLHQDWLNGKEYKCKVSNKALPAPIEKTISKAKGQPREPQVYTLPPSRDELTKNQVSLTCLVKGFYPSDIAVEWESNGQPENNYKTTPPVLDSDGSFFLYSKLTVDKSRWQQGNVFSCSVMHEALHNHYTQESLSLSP
light: B1 light
notes: homodimerized; also called Ho Ab E269_02A
B42: GpH7-B3 variant E333_14T/GpL16-k0 (antibody, human IgG1, kappa)
heavy: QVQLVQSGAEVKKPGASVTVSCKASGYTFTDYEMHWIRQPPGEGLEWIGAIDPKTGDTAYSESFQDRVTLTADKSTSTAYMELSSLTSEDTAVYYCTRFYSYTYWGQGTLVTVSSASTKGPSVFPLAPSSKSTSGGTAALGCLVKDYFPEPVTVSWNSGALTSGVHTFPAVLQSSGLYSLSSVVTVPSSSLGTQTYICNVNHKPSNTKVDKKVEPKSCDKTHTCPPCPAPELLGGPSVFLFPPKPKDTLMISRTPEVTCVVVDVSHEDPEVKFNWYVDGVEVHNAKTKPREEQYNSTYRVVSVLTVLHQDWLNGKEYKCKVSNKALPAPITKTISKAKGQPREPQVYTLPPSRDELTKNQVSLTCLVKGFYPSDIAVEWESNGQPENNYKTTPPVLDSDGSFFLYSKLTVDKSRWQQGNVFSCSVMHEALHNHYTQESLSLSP
light: B1 light
notes: homodimerized; also called Ho Ab E333_14T
B43: GpH7-B3 variant E333_13S/GpL16-k0 (antibody, human IgG1, kappa)
heavy: not shown
light: B1 light
notes: homodimerized; also called Ho Ab E333_13S
B44: GpH7-B3 variant G236_02A/GpL16-k0 (antibody, human IgG1, kappa)
heavy: not shown
light: B1 light
notes: homodimerized; also called Ho Ab G236_02A

biological target: T1, FcγRIa (human, UniProt P12314 16-292); test: SPR; vs GpH7-B3/GpL16-k0=100
T1 construct: extracellular domain; also called FcgRI; CD64
T1 sequence (P12314 16-292): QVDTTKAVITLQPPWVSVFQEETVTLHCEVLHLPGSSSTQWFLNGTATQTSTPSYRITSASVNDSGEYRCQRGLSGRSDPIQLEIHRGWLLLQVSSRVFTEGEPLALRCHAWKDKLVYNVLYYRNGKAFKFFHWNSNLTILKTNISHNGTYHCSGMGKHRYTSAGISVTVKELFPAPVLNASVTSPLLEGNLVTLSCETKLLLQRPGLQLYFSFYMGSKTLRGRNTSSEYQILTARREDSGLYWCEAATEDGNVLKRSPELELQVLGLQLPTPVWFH

Ho/Con_1a | Binder
102 % of control | B1
98.9 % of control | B2
100 % of control | B3
105 % of control | B4
98.4 % of control | B5
101 % of control | B6
99.6 % of control | B7
99.5 % of control | B8
104 % of control | B9
99.9 % of control | B10
106 % of control | B11
84.4 % of control | B12
97.4 % of control | B13
104 % of control | B14
96.2 % of control | B15
96.2 % of control | B16
103 % of control | B17
95.7 % of control | B18
95.9 % of control | B19
99.1 % of control | B20
106 % of control | B21
98.4 % of control | B22

Ho/Con_1a | Binder
98.4 % of control | B23
97.1 % of control | B24
95.8 % of control | B25
98.8 % of control | B26
99 % of control | B27
92.7 % of control | B28
94.1 % of control | B29
101 % of control | B30
95.4 % of control | B31
99.2 % of control | B32
108 % of control | B33
100 % of control | B34
106 % of control | B35
106 % of control | B36
86.1 % of control | B37
108 % of control | B38
100 % of control | B39
94.2 % of control | B40
96.2 % of control | B41
98.7 % of control | B42
101 % of control | B43
92.4 % of control | B44
